Source: article PMC6282390

Columns and labels:
[1] = system: Dicer D1320A/D1709A (Homo sapiens); experiment: EMSA; settings: 5'-phosphate, 3'-OH; 50 mM Tris pH 7.6, 50 mM NaCl, 10% glycerol, 0.05% NP-40, 2 mM DTT, (0.5 mM EDTA for WT), 2 pM RNA (10 pM in Fig. 4 legend), 30 min at 4 °C
Dicer WT (Homo sapiens) = experiment: EMSA; settings: 5'-phosphate, 3'-OH; 50 mM Tris pH 7.6, 50 mM NaCl, 10% glycerol, 0.05% NP-40, 2 mM DTT, (0.5 mM EDTA for WT), 2 pM RNA (10 pM in Fig. 4 legend), 30 min at 4 °C

pre-let-7a-1 gave a Kd [1] of 9 nM and a Kd (Dicer WT (Homo sapiens)) of 5 nM.
